Biological target: CVB3 3D (Coxsackievirus B3, UniProt P03313 1724-2185)
Test: ITC

Sequence of CVB3 3D (P03313 1724-2185): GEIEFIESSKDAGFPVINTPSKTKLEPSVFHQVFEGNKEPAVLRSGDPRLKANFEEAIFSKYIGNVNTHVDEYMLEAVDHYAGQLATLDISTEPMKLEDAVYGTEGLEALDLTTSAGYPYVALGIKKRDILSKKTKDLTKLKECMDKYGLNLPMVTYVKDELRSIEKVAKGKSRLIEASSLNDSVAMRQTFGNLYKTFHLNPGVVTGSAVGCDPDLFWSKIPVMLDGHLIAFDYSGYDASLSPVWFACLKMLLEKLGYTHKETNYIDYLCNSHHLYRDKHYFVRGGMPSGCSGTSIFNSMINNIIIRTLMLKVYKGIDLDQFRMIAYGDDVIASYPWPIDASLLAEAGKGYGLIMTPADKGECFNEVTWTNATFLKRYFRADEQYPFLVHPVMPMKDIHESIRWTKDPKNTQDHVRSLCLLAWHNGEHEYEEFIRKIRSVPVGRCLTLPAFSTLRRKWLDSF

B1: CVB3 CL WT (structured_RNA)
RNA: GGUAAAACAGCCUGUGGGUUGAUCCCACCCACAGGGCCCAUUGGGCGCUAGCACUCUGGUAUCACGGUACCUUUGUGCGCCUGUUUUACC
binding result: no binding
